{"source": "patent US20210380653A1", "biological_target": "DR5 receptor (TRAIL-R2, TNFRSF10B) (human) (UniProt O14763)", "sequence (O14763 56-440)": "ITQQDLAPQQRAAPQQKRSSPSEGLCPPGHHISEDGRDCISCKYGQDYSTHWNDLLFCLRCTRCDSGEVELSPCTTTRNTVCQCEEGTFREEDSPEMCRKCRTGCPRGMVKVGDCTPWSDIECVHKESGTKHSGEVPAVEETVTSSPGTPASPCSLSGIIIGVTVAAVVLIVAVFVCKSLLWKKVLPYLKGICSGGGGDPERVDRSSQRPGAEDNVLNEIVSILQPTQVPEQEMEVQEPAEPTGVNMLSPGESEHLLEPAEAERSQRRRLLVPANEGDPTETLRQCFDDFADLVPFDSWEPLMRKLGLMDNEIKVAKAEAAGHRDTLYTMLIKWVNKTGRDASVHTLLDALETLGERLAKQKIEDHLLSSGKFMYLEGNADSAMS", "experiment": "cell-based or functional assay"}
{"substance": "TLY012 (PEGylated miLZ-TRAIL; PEGylated form of recombinant human TRAIL fused to a modified isoleucine zipper at the N-terminus) (ligand)", "values": [{"measurement": "IC50, nM (cell viability / cytotoxicity, COLO-205 cells, CellTiter-Glo)", "result": 0.0155, "unit": "nM"}]}
